The results in this text go back to patent publication US20150338398.

Where two headings read alike, the source gives them in different places.

The subject of this series is TAL-PrA (GAL1 promoter TAL). The following applies: ChIP-qPCR.

The substance “AAATTAATCAGCGGTGAC (double strand) [REV7 similar site (ChrIX)]” gave a binding signal of 0.77 fold vs ACT1.

For the setting “not enriched in glucose”, “GAL1 promoter TAL target (ChrII 278829-278846)” gave a binding signal of 6.14 fold vs ACT1.

“GGGGTAATTAAAATTTCT (double strand) [IQG1 similar site (ChrXVI)]” showed a binding signal of 0.76 fold vs ACT1.

On to “GGGGTAATTAATCATTTT (double strand) [SCC2 similar site (ChrIV)]”, for which the binding signal came out at 0.65 fold vs ACT1.

With “GGGGTAATTAATGTAAAT (double strand) [IDP3 similar site (ChrXIV)]”, the binding signal is 0.94 fold vs ACT1.

The substance “TTATACATTAATCAGCGA (double strand) [ENB1 similar site (ChrXV)]” yielded a binding signal (GAL1 at least 4.6-fold better) of 1.34 fold vs ACT1.
